Patent US20240002497A1

How the values were obtained:
huNav1.7α + β1 (human) = huNav1.7α + β1 (human) (UniProt Q15858); assay: cell-based or functional assay
[1] = target: rhNav1.7α + β1-β2-β3 (rhesus monkey); assay: cell-based or functional assay
[2] = target: huNav1.7α + β1-β2-β3 (human) (UniProt Q15858); assay: competition FACS vs EC25 of 275B05(N93R), CHO FlpIn
[3] = target: rhNav1.7α + β1-β2-β3 (rhesus monkey); assay: as above
[4] = target: huNav1.7α + β1-β2-β3 (human) (UniProt Q15858); assay: competition FACS IC50 with 50 µM human SA against without
[5] = target: rhNav1.7α + β1-β2-β3 (rhesus monkey); assay: as above
[6] = target: huNav1.7α + β1-β2-β3 (human) (UniProt Q15858); assay: competition FACS vs EC25 of 275B05(N93R), CHO FlpIn, + 50 µM human SA
[7] = target: rhNav1.7α + β1-β2-β3 (rhesus monkey); assay: as above
[8] = target: rhNav1.7α + β1-β2-β3 (rhesus Nav1.7α co-expressed with Navβ1, Navβ2 and Navβ3) (rhesus monkey); assay: FACS, periplasmic extract, CHO Flp-In cells; SD MFI 13
[9] = target: muNav1.7α (murine Nav1.7α) (murine) (UniProt Q62205); assay: FACS, periplasmic extract, HEK Jmp-In cells; SD MFI 24
[10] = target: rhNav1.7α + β1-β2-β3 (rhesus Nav1.7α co-expressed with Navβ1, Navβ2 and Navβ3) (rhesus monkey); assay: FACS, periplasmic extract, CHO Flp-In cells; SD MFI 15
[11] = target: rhNav1.7α + β1-β2-β3 (rhesus Nav1.7α co-expressed with Navβ1, Navβ2 and Navβ3) (rhesus monkey); assay: FACS, periplasmic extract, CHO Flp-In cells; SD MFI 18
[12] = target: muNav1.7α (murine Nav1.7α) (murine) (UniProt Q62205); assay: FACS, periplasmic extract, HEK Jmp-In cells; SD MFI 175
[13] = target: rhNav1.7α + β1-β2-β3 (rhesus Nav1.7α co-expressed with Navβ1, Navβ2 and Navβ3) (rhesus monkey); assay: FACS, periplasmic extract, CHO Flp-In cells; SD MFI 34
[14] = target: rhNav1.7α + β1-β2-β3 (rhesus Nav1.7α co-expressed with Navβ1, Navβ2 and Navβ3) (rhesus monkey); assay: FACS, periplasmic extract, CHO Flp-In cells; SD MFI 53
[15] = target: rhNav1.7α + β1-β2-β3 (rhesus Nav1.7α co-expressed with Navβ1, Navβ2 and Navβ3) (rhesus monkey); assay: FACS, periplasmic extract, CHO Flp-In cells; SD MFI 49
[16] = target: rhNav1.7α + β1-β2-β3 (rhesus Nav1.7α co-expressed with Navβ1, Navβ2 and Navβ3) (rhesus monkey); assay: FACS, periplasmic extract, CHO Flp-In cells; SD MFI 16
[17] = target: huNav1.5-β1-β2-β3 (human) (UniProt Q14524); assay: binding FACS, HEK Flp-In
[18] = target: huNav157chim14-β1-β2-β3 (human); assay: binding FACS, HEK Flp-In
[19] = target: huNav1.5-β1-β2-β3 (human) (UniProt Q14524); assay: FACS, CHO Flp-In, competitor 1 µM IRR00092
[20] = target: huNav1.7α + β1-β2-β3 (human) (UniProt Q15858); assay: FACS, CHO Flp-In, competitor 1 µM IRR00092
[21] = target: rhNav1.7α + β1-β2-β3 (rhesus monkey); assay: FACS, CHO Flp-In, competitor 1 µM IRR00092
[22] = target: huNav1.5-β1-β2-β3 (human) (UniProt Q14524); assay: FACS, CHO Flp-In, competitor 1 µM F010300703
[23] = target: rhNav1.7α + β1-β2-β3 (rhesus monkey); assay: FACS, CHO Flp-In, competitor 1 µM F010300703
[24] = target: huNav1.5-β1-β2-β3 (human) (UniProt Q14524); assay: binding FACS, CHO Flp-In, periplasmic extract
[25] = target: huNav1.7α + β1-β2-β3 (human) (UniProt Q15858); assay: binding FACS, CHO Flp-In, periplasmic extract

B1: F010301555 (bispecific antibody, part only; not given: Anti-albumin building block, part only)
chain, part: DVQLVESGGGLVQPGGSLRLSCAASGPVFNINSMAWYRRAPGKQRELVAYSTPGWDWNYADSVKGRFTISRDNAKRVYLQMNSLTPEDTAVYYCRWLLQPSIYDISRTYWGQGTLVTVSSGGGGSGGGS
- Human SA ratio of QPatch IC50 (huNav1.7α + β1 (human)): 7
- QPatch electrophysiology IC50 [M], HEK cells (huNav1.7α + β1 (human)): 4.7e-08 M
- QPatch electrophysiology IC50 [M], HEK cells, + 10 µM human SA (huNav1.7α + β1 (human)): 3.4e-07 M
- Human SA ratio of QPatch IC50 [1]: 7
- QPatch electrophysiology IC50 [M], HEK cells [1]: 3.5e-08 M
- QPatch electrophysiology IC50 [M], HEK cells, + 10 µM human SA [1]: 2.6e-07 M
- IC50 [2]: 140 nM
- IC50 [3]: 92 nM
- Human SA ratio [4]: 8
- Human SA ratio [5]: 10
- IC50 [6]: 1200 nM
- IC50 [7]: 880 nM

B2: F0103464B09 T100I library variant (VHH, name in Kabat numbering)
VHH: EVQLVESGGGLVQPGGSLRLSCATTSRAFIRDVFTGWYRRVPGKERELVARIYNGGNTNYADFAKGRFSISRDNAKKMVTLRMSNLKPEDTGVYYCLFSGTINIGREYRSGDYWGQGTLVTVSS
- Mean MFI [8]: 541 MFI
- Mean MFI [9]: 1310 MFI

B3: F0103464B09 T100K library variant (VHH, name in Kabat numbering)
VHH: EVQLVESGGGLVQPGGSLRLSCATTSRAFIRDVFTGWYRRVPGKERELVARIYNGGNTNYADFAKGRFSISRDNAKKMVTLRMSNLKPEDTGVYYCLFSGTINKGREYRSGDYWGQGTLVTVSS
- Mean MFI [10]: 583 MFI

B4: F0103464B09 T100L library variant (VHH, name in Kabat numbering)
VHH: EVQLVESGGGLVQPGGSLRLSCATTSRAFIRDVFTGWYRRVPGKERELVARIYNGGNTNYADFAKGRFSISRDNAKKMVTLRMSNLKPEDTGVYYCLFSGTINLGREYRSGDYWGQGTLVTVSS
- Mean MFI [11]: 531 MFI
- Mean MFI [12]: 1250 MFI

B5: F0103464B09 T100M library variant (VHH, name in Kabat numbering)
VHH: EVQLVESGGGLVQPGGSLRLSCATTSRAFIRDVFTGWYRRVPGKERELVARIYNGGNTNYADFAKGRFSISRDNAKKMVTLRMSNLKPEDTGVYYCLFSGTINMGREYRSGDYWGQGTLVTVSS
- Mean MFI [13]: 585 MFI

B6: F0103464B09 T100Q library variant (VHH, name in Kabat numbering)
VHH: EVQLVESGGGLVQPGGSLRLSCATTSRAFIRDVFTGWYRRVPGKERELVARIYNGGNTNYADFAKGRFSISRDNAKKMVTLRMSNLKPEDTGVYYCLFSGTINQGREYRSGDYWGQGTLVTVSS
- Mean MFI [14]: 650 MFI

B7: F0103464B09 T100R library variant (VHH, name in Kabat numbering)
VHH: EVQLVESGGGLVQPGGSLRLSCATTSRAFIRDVFTGWYRRVPGKERELVARIYNGGNTNYADFAKGRFSISRDNAKKMVTLRMSNLKPEDTGVYYCLFSGTINRGREYRSGDYWGQGTLVTVSS
- Mean MFI [15]: 626 MFI

B8: F0103464B09 T100Y library variant (VHH, name in Kabat numbering)
VHH: EVQLVESGGGLVQPGGSLRLSCATTSRAFIRDVFTGWYRRVPGKERELVARIYNGGNTNYADFAKGRFSISRDNAKKMVTLRMSNLKPEDTGVYYCLFSGTINYGREYRSGDYWGQGTLVTVSS
- Mean MFI [16]: 526 MFI

B9: F010300702 (bispecific antibody, V domains shown, not shown: small tags and cut ends)
VH: EVQLVESGGGLVQPGGSLRLSCAASGSIFNINSMAWYRRAPGKQRELVASSTNGGSTNYADSVKGRFTISRDNAKRVYLQMNSLTPEDTAVYYCRALLQPSIYDISRTYWGQGTLVTVSS
- MFI [17]: 946 MFI
- MFI [18]: 15400 MFI
- MFI [19]: 684 MFI
- MFI [20]: 4120 MFI
- MFI [21]: 5170 MFI
- MFI [22]: 653 MFI
- MFI [23]: 721 MFI
- MFI [24]: 662 MFI
- MFI [25]: 1570 MFI
